According to paper PMC5741831, “Structural determinants for protein unfolding and translocation by the Hsp104 protein disaggregase” (Bioscience Reports, 2017):

Biological target: the molecule itself
Assay: crystal structure; orthorhombic crystal form, 2.6 Å, nucleotide-free, three copies in the asymmetric unit; contacts between NCS-related neighbouring molecules in the crystal, not the hexameric ring

B1: Hsp104_(1-360) (domain or fragment, S. cerevisiae, UniProt P31539 1-360, looked up)
chain: MNDQTQFTERALTILTLAQKLASDHQHPQLQPIHILAAFIETPEDGSVPYLQNLIEKGRYDYDLFKKVVNRNLVRIPQQQPAPAEITPSYALGKVLQDAAKIQKQQKDSFIAQDHILFALFNDSSIQQIFKEAQVDIEAIKQQALELRGNTRIDSRGADTNTPLEYLSKYAIDMTEQARQGKLDPVIGREEEIRSTIRVLARRIKSNPCLIGEPGIGKTAIIEGVAQRIIDDDVPTILQGAKLFSLDLAALTAGAKYKGDFEERFKGVLKEIEESKTLIVLFIDEIHMLMGNGKDDAANILKPALSRGQLKVIGATTNNEYRSIVEKDGAFERRFQKIEVAEPSVRQTVAILRGLQPKYE
notes: Hsp104, S. cerevisiae, residues 1-360: N domain (4-164), AAA-1 large domain (165-341) and first helix of the AAA-1 small domain (345-356); three independent copies in the crystallographic asymmetric unit; nucleotide-free; also called N-terminal fragment of S. cerevisiae Hsp104; mol 1; source: E. coli BL21-CodonPlus (DE3)-RIL, purified (Ni-NTA, anion exchange, Mono-S); not shown: His6, N-terminal, …
B1: binds.
